Laboratory results reported in patent publication US12295997B2, “Prostate neoantigens and their uses” (Janssen Biotech, Inc., priority 2020, dated 2025).

Assays:
Experiment in all cases: In vitro binding of neoantigens to class I MHC (UV peptide exchange, HLA class I ELISA)
Conditions in all cases: 100% = same binding as positive control peptide
HLA-A*02:01 = HLA-A*02:01 (Homo sapiens, UniProt P04439, D140Y/D185E/D98H/E176V/E277Q/G131W/G231S/I119V/I121R/I166T/I218V/L300P/L318F/N151K/N90K/P208A/P217A/Q86G/Q94H/R138H/R169H/T345S)
Description: (§1) The 9 mer peptides identified by bioinformatics analysis were analyzed for their binding propensities to 6 common HLA class I alleles (HLA-A*01:01, A*02:01, A*03:01, A*24:02, B*07:02, B*08:01). The principle of the method is briefly described below and consists of two parts, one involving exchange of peptide with a positive control induced by Ultraviolet (UV) radiation, and the second is an enzyme immunoassay to detect stable HLA-peptide and empty HLA complexes.
(§2) HLA-bound peptides are critical for the stability of the HLA complex. A conditional HLA class I complex was stabilized by an UV-labile peptide utilizing a different peptide (Pos) for each HLA (Pos: HLA-A*01:01: […](SEQ ID NO: 409), HLA-A*02:01: […] (SEQ ID NO: 410), HLA-A*03:01: […] (SEQ ID NO: 411), HLA-A*24:02: […] (SEQ ID NO: 412), HLA-B*07:02: […] (SEQ ID NO: 413), HLA-B*08:01: […] (SEQ ID NO: 414), which could be cleaved by UV irradiation when bound to the HLA molecule. Upon cleavage, the resulting peptide fragments dissociated from the HLA class I complex since their length was insufficient to bind stably to HLA. Under the conditions in which peptide cleavage was performed (neutral pH, on melting ice), the peptide-free HLA complex remained stable.
(§3) The exchange efficiency between the peptide of interest and Pos was analyzed using an HLA class I ELISA. The combined technologies allowed the identification of ligands for an HLA molecule of interest which are potentially immunogenic.
(§4) Exchange control peptide Pos was a high affinity binder to the relevant HLA class I allele while exchange control peptide Neg was a non-binder. The UV control represented UV-irradiation of conditional HLA class I complex in the absence of a rescue peptide.
(§5) The HLA class I ELISA is an enzyme immunoassay based on the detection of beta2-microglobulin (B2M) of (peptide-stabilized) HLA class I complexes. To this end streptavidin was bound onto polystyrene microtiter wells. After washing and blocking, HLA complex present in exchange reaction mixtures or ELISA controls was captured by the streptavidin on the microtiter plate via its biotinylated heavy chain. Non-bound material was removed by washing. Subsequently, horseradish peroxidase (HRP)-conjugated antibody to human B2M was added. The HRP-conjugated antibody binds only to an intact HLA complex present in the microtiter well because unsuccessful peptide exchange results in disintegration of the original UV-sensitive HLA complex upon UV illumination. In the latter case B2M was removed during the washing step. After removal of non-bound HRP conjugate by washing, a substrate solution was added to the wells. A coloured product formed in proportion to the amount of intact HLA complex present in the samples. After the reaction was terminated by the addition of a stop solution, absorbance was measured in a microtiter plate reader. The absorbance was normalized to the absorbance of an exchange control peptide (represents 100%). Suboptimal HLA binding of peptides with a moderate to low affinity for HLA class I molecules can also be detected by this ELISA technique (Rodenko, B et al. (2006) Nature Protocols 1: 1120-32).
(§6) Peptides that had 10% or greater exchange efficiency in one of the 6 HLA alleles were considered for further immunogenicity testing and analysis.
(§7) Binding of select neoepitopes to HLA-A*01:01, HLA-A*02:01, HLA-A*03:01, HLAA*24:02, HLAAB*07:02 and HLA-B*08:01 was evaluated using the assay described in Example 1. […] As a criterion for further evaluation, peptides with an exchange rate of at least 10% with the corresponding Pos peptide for at least one of the 6 HLA alleles that we considered for further evaluation. The exchange rates with the allele specific Pos peptides, of the 24 neoantigens so identified are summarized below in Table 17. Higher percentages correspond to stronger binding to the HLA allele. […]

HLA-A*24:02 = HLA-A*24:02 (Homo sapiens, UniProt P04439, D101N/D140Y/D185E/E176V/E190D/F33S/G103R/G107R/I119L/I121M/I306V/K335N/L105A/L180Q/L300P/N151K/N90K/Q86E/Q94H/R106L/R138H/R89G/T104I/T345S/V100E/W191G/Y123F)
Description: as §1, §2, §3, §4, §5, §6, §7

HLA-B*08:01 = HLA-B*08:01 (Homo sapiens, UniProt P01889, A93T/A95T/D138N/E176V/E187T/K202T/Q94N/R180D/S35A/V36M/Y33D/Y91F)
Description: as §1, §2, §3, §4, §5, §6, §7

HLA-A*01:01 = HLA-A*01:01 (Homo sapiens, UniProt P04439, A114D/A174V/A182V/D101N/D185E/E176A/E190D/L180R/Q94H/R68K/S129P/T187R/V100A/V91M/W191G)
Description: as §1, §2, §3, §4, §5, §6, §7

HLA-B*07:02 = HLA-B*07:02 (Homo sapiens, UniProt P01889)
Description: as §1, §2, §3, §4, §5, §6, §7

| Molecule | Exchange rate with allele specific Pos peptide, HLA-A*02:01 (HLA-A*02:01) [%] | Exchange rate with allele specific Pos peptide, HLA-A*24:02 (HLA-A*24:02) [%] | Exchange rate with allele specific Pos peptide, HLA-B*08:01 (HLA-B*08:01) [%] | Exchange rate with allele specific Pos peptide, HLA-A*01:01 (HLA-A*01:01) [%] | Exchange rate with allele specific Pos peptide, HLA-B*07:02 (HLA-B*07:02) [%] |
| --- | --- | --- | --- | --- | --- |
| SLYHREKQLIAMDSAI (listed as Homo sapiens) [Neoantigen P22] | 46.9 | 0 | 3.9 | 4.4 | – |
| P61 (MFENGCYLGRQKRFKCE; listed as Homo sapiens) [Peptide P61] | 5.8 | 90.3 | 3.6 | 1.7 | – |
| P73 (DSSGNLLERNSFEVRV; listed as Homo sapiens) [Peptide P73] | 89.2 | 0.5 | 2.6 | 2.1 | 8.7 |
| P58 (MMAEIISVHVPKILSGK; listed as Homo sapiens) [Peptide P58] | 11.8 | 0.2 | 5.3 | 2.5 | – |
| YEAGMTLGEKFRVGNCKHLKMTRP (listed as Homo sapiens) [Neoantigen P82] | 6.3 | −0.1 | 1.4 | 1.5 | 12.9 |
| P46 (DDRNTFDIVWWCPMSRLRLALTVPPSTTTTCVTVPAWAA; listed as Homo sapiens) [Peptide P46] | 14.4 | −0.4 | 14.5 | 2.4 | 64.8 |
| P56 (PKSEVRAKCKFSILNAK; listed as Homo sapiens) [Peptide P56] | 8.4 | 0.5 | 38 | 2.6 | 82.5 |
| P97 (GYLRMQGLMAQRLLLR; listed as Homo sapiens) [Peptide P97] | 4.6 | 0.1 | 2.7 | 2.5 | 7 |
| YEAGMTLGGKILFFLFLLLPLSPFSLIF (listed as Homo sapiens) [Neoantigen P87] | 64 | 0.2 | 3.1 | 1.1 | 5 |
| P98: neoantigen 9 mer fragment used for PBMC stimulation (FIG. 5D) (IVWWCPMSR; listed as Homo sapiens) [Neoantigen P98] | 7.9 | −0.1 | 2.4 | 2.5 | 6.7 |
| P60 (CYLRRQKRLKCEKQPGA; listed as Homo sapiens) [Peptide P60] | 7.9 | 0.9 | 10.2 | 3.1 | 6.1 |
| P19 (peptide, listed as Homo sapiens) WTPIPVLTRWPLPHPPPWRRATSCRMARSSPSATSGSSVRRRCSSLPSWVWNLAASTRPRSTPS | 8.2 | 0.1 | 14.5 | 5.2 | 91.3 |
